Measured values taken from the DeepSol protein solubility set.

test: soluble on expression in E. coli; label from the status in PepcDB or PDB records

| Sequence | soluble on expression in E. coli |
| --- | --- |
| MGHHHHHHSHMWSSREIEDLGLTFAIAIDKGKETNTEKELKEEGGSYPKKDNITLTYQFVNEKAAGAGTSGGGGSGQGAQKAYINISETGDSLQQIGSEVALRRDREVFSPHLKVVVMSEDVLHTFPIDEMLDQFFRDNEIRLSCLVLSAKGEARDALQLKENGEIPAFRLIGLGENEHKVSRILPPMTLAKLIGKLHSGSSFLLQNVVAANGAVKYSGAAVINGKSKKMIGTLNEYETEGITWIRGEGKGGVVKSHDKKSQQTLAYDINKIKSRIQPIVKGKDISFHVDIESEGDLVENWNTKEALDTQFIDRLETTIENEVKKIVGQVLKKIQHDYKADVAGFDESFRLTYPHLWKRVKNNWDDTFSKADITYSVNVTITHFGTVKTQ | soluble |
| MGHHHHHHSHVRSPQNQYPAELMRRFELYFQGPSSNKPRVIREVRADSVGKLVTVRGIVTRVSEVKPKMVVATYTCDQCGAETYQPIQSPTFMPLIMCPSQECQTNRSGGRLYLQTRGSRFIKFQEMKMQEHSDQVPVGNIPRSITVLVEGENTRIAQPGDHVSVTGIFLPILRTGFRQVVQGLLSETYLEAHRIVKMNKSEDDESGAGELTREELRQIAEEDFYEKLAASIAPEIYG | soluble |
| MGHIIDISKWNGDINWSIAKQHIDFIIARVQDGSNYVDPLYKGYVQAMKQHGIPFGNYAFCRFVSIADAKKEAQDFWNRGDKSATVWVADVEVKTMNDMRAGTQAFIDELYRLGAKKVGLYVGHHMYTPFGMANVKSDFVWIPRYGGNKPAYPCDIWQYTETGNVPGIGKCDLNSLIGNKSLSWFTESATQESVQAPTQNIIQSGAFSPYETPDVTGALTSLKMTAKFILKPDGLTYFISDPTSDAQLNAMKEYLDRKGWWYEVK | not soluble |
| MGIGNENKGFITASADALINWVRTGSLWPVTTGLACCAVEMMHAGAARYDLDRFGIVFRPSPRQSDVLIVAGTLCNKMAPALRQVYDQMPDPKWVISMGSCANGGGYYHYSYSVVRGCDRIVPVDIYVPGCPPTAEALVYGIIQLQNKIIRKDTIARK | not soluble |
| MGKEMASEYELGQVRLGEFQLYTNGEELYRKLFEDINDAEKYIYIHFYIVGKDEISQEFLQLLEKKASSGVEVKLSVDRIGGYKLKKKVISRLKENGVKFTFSKKPKLKNVFYSLHQRNHRRIVTIDGKVSYVGGFNIGKEYLGQNPKFGPWRDYHVRIHGEGAADMERKFAEDWKEDTGEKMPIHESIPTLGNVKYQYLFSNGKGLWEKYGALLKKAKKSLIIATPYFVPSKEMVKELKAALNRGVNVKILVPFKSDAILLKQAAYPYLKDMLHAGAEIYQYRNGFFHGKVTIIDGEIVDIGTANFDNRSFYLNCESNCIIYDKTVVDEVWSRLQVDFHKSKRFSEEDFEKISRWDWFLARIANVLASYL | not soluble |
| MGKEYHVAVVGATGAVGTRMIELLAETSLPIASVRLLASKRSAGQEIQFKGQPLIVEELVPESFEGIDLALFSAGGSISEKFAPEAVKRGAVVVDNTSHFRMAKDVPLVVPEVNPEALKNHQGIIANPNCSTIQMMVALEPIRQAFGLERIIVSTYQAVSGAGIRAINELKEQAEDFLEGKPVSEWSAEILPAGSDEKHYPIAFNALPQIDVFSEAGYTYEEWKMMNETKKIMGDNKLKVVATCVRIPVISGHSESVYIEVKQADASVSAIQELMAQAPGVILQDEPSEQLYPQALNSVNQKETFVGRIRQDVDVKNGFHLWIVSDNLLKGAAWNSVQIAETLHEMNLLRVPEND | not soluble |
| MGKKYKNIVLLKGLEVINDYHFRMVKSLLSNDLKLNLKMREEYDKIQIADLMEEKFRGDAGLGKLIKIFEDIPTLEDLAETLKKEKLKVKGPALSRKRKKEVDATSPAPSTSSTVKTEGAEATPGAQKRKKSTKEKAGPKGSKVSEEQTQPPSPAGAGMSTAMGRSPSPKTSLSAPPNTSSTENPKTVAKCQVTPRRNVLQKRPVIVKVLSTTKPFEYETPEMEKKIMFHATVATQTQFFHVKVLNTSLKEKFNGKKIIIISDYLEYDSLLEVNEESTVSEAGPNQTFEVPNKIINRAKETLKIDILHKQASGNIVYGVFMLHKKTVNQKTTIYEIQDDRGKMDVVGTGQCHNIPCEEGDKLQLFCFRLRKKNQMSKLISEMHSFIQIKKKTNPRNNDPKSMKLPQEQSQLPNPSEASTTFPESHLRTPQMPPTTPSSSFFTKKSEDTISKMNDFMRMQILKEGSHFPGPFMTSIGPAESHPHTPQMPPSTPSSSFLTTLKPRLKTEPEEVSIEDSAQSDLKEVMVLNATESFVYEPKEQKKMFHATVATENEVFRVKVFNIDLKEKFTPKKIIAIANYVCRNGFLEVYPFTLVADVNADRNMEIPKGLIRSASVTPKINQLCSQTKGSFVNGVFEVHKKNVRGEFTYYEIQDNTGKMEVVVHGRLTTINCEEGDKLKLTCFELAPKSGNTGELRSVIHSHIKVIKTRKNKKDILNPDSSMETSPDFFF | soluble |
| MGKLYVFDHPLIQHKITYIRDKNTGTKDFRELVDEVASLMAFEITRDLPLKDIEIETPVSKATTKVIAGKKLGLIPILRAGLGMVDGILKLIPAAKVGHVGLYRDPKTLQPVEYYVKLPTDVEERDFIVLDPMLATGGSAAEAINSLKKRGAKQIKLMCIVAAPEGVKVVQEEHPDVDIYVAALDEKLNDHGYVVPGLGDAGDRLFGTK | not soluble |
| MGKRLKSNARKSAVNKLVKKTDNRIKEEQRVIRTPKVDEQELKLVRAPKISSAMFMKYNTQLGPPFHVIVDTNFVNFAVKNRIDMFQGFMDCLFAKTIVYATDCVLAELEKVRRFKIALKVLKDPRVQRLKCEHKGTYADDCLVQRVTQHKCYIVATCDRDLKRRIRKIPGVPIMYIVNHRFSIERMPDAYGAPMN | not soluble |
| MGKSYKEIIELLDCNQTTIWRNVKKYEEFGLDSLLQETRGGRNHAYMTVEEEKAFLARHLKATEAGEFVTIDALFQVYKKECG | not soluble |
| MGKYTEQAKLAAVKEYCAGKAGLRDVAHRHDVDFSCLRQWVAAYQIHGPAALKEKRRQRYSDEFKLAVLKRMHDERLSLRQTAALFDIRQFGIINLWQRLFDEGALNASSKPPKKAGRPRKMTTPLPPVNSSPINDESRSRDELLAEVKQLRMEVDYLKKLDALVQKKQRIAQQKKRKSLEHHHHHH | not soluble |
| MGLAQSHSRTPSRDPLPNDHQVMDVYEESGPRRGRKRKAAKGSEIEMKKVAKLNTCAYVYQKLFLQGENSDIVLAACGREWRVHKLYLKQTKFFESMFDGLWTESNSGRVQMEITDPNIDADGLNSVLGSLYHNEIEIDLDKIEGTVAAASYIVLDSVTDRCSEMMIEALSTKNAVRFYDVSTKYGLEKVREKSMEVLLHQFWKIMTDREKLNEVDRQLFVTLLNSPNLLIIEGEFDLYKVVKSWIYMREVPDCCKDDSPETFTQNASKFFKESKTSMFIKYADIFASLRIEQFLTCSETIKTVKSDALIPLSIVDEMTSALWSSLLENEESPKTLEMDDDEFFKRCIRLGRSLDSFPKCWRWIGFNFGVDLLLHVNDYSVCIKRNCLNQKAPYSVNLKSKHVLHYRLVICDSNGQILYDSGKTTWEMKPDEARTIYRMSEDLATQISVHFQYLIHQPICSTGHYVNKYLDDQNSTDDEDDEEEEDDDGDDEEDSS | not soluble |
| MGLFDFFKKKSSSEKTPIEDGDKTVVKSEDTDDSAPGWEAIDAEFDRLYPDQPNPLHYGTIVKYMFGGPDPLDGISVYDAGDFWHFVSYGLSELYTKESTDSEYSGYGIELTFKLKKSTNDEEEIKNGCGLLQYVARYIFKTGKVVLPEEYIYMKQTVGIDIQQKSKLTGFLTVSDNLAKPLDTPHGKVEFVTLIGATDAELRSVYESETSKLEVRKLLQELGNQITDYNRQSLVLEHHHHHH | not soluble |
| MGLKIGDIVSRKSYGSDILFKVVDIKYEKGRKIVVLKGICYRLEADAPETDLIVQPDSYVREYNARVNRAINEKLKSLNESLMREKTKKKFFRDAAKENNENFPRPGKVLHVDGDSDYLDTCMEEYRKLGMDAVGVYVKEKEQPLKIYNLLKEHKPDILVLTGHDGVIKSEKGYSDITNYRNSKYFVEAVREARRFDGNLDSLVIFAGACQSMFKKIIEAGANFASSPYRVLIHALDPVMVCEKIAFTSINQVISPQDVISKTITGVKGIGGIETRGKYRDGFPREPYNIK | soluble |
